Measured values: the DeepSol protein solubility set

assay: soluble on expression in E. coli; label from the status in PepcDB or PDB records

Row | Sequence | soluble on expression in E. coli
1 | MNDITASSSVILDSLLIDDSLITCEVCFEVFNHENRPPKLLPCGHNFCESCIFSLCLHQEYYLLDSIKCPTCRREFTTNTARQAPTNYDLCKILENLFRRKEQNVTVIEVPELVHNLPPPMAEVSSSATKIVTSQQQQQQQPAVATKMPRHHVSKKMKALAKRTEESKHFRCADCQRKISQKNLFRVSRYCVDCTSTSRMTIVCLECCVNHHNGHDLLTEDSLHHNQLKTLSDLRKLRHRILDSSDEFDRRADEIRTSGMDVCGGLSAEKHNLLTYTLASIDDVMRRIEMAPILFPPVLRTIRDEQSHNFSRLEKLSAQLEKSLVSRKNTKPTSLTFIENMNDTTYQGLQRSVQNQSLNKSTLSIRQSRVSLRTDDSLFHESISSLTRLMHQHPMCLQLEFHHSTVSSKDTVTQRKQKIMSCAHATTSMLDMDLTQVSMVPIFADVLLNCFYQLNRLSKNKFVGDKKYRRCDIWKQVQCSYTELFGITAKHFPSHHPERVDILDDLAYLCHLYSDVADQGTVTICLIEAARARASDSSGLTEIEQQRSEERLELIDEHLTECRRLQKLLELRKTSKTKKNGGLKRLFGGCFIAQEKANDSLVY | not soluble
2 | MGSDKIHHHHHHMAYTVLLVTSVNTYKEQLNHPIMSDVGKLLPTKIKRVESATDEHSLIKLVQDANVSGEKISIAGMQHSQGGQTYYPHGTMLDMKGYNKILEFDPEKKRITVQSGATWNDIQKKVNPYGLAVQVMQSQNIFTVGGSLSVNVHGRDIRHEALIDTVESFRLLMADGTVRNVSREENADLFPYVIGGYGLFGVILDVTLKLTNDELYETHTKMLDYKEYTSYFKEKVKKDENVRMHLARISVAPNSFFREMYVTDYTLAKNQNMREEYSKLKEETIIAAPKFLLGLSRYSDWGKDTFWDIQRSYFERTDGKYETRNNVMRSDSAFMEYENPNRTEVLQEYFVPIDFFTEYIDDLRNVLNEEEFNLLNITVRYVEKNENAVLSYAKDDMFALVLLINQGRSEHEIKKTENVIQKMIDVTLKHNGSYYLPYYSYPSKEQLRRAYPRIEEFLQKKKEADPKERFVNLFYREYTK | not soluble
3 | MGSDKIHHHHHHMEISMRFTDINQERERILSCPVPGYFPRKDSFLELERLIGLREVKRTLAEVAAFTLIQNRRSELRLKSDPTALHMVFKGNPGTGKTTVARILGRVFNEIGILSKGHLLEVERADLVGEYIGHTAQKTREILKRAMGGIVFIDEAYSLAQGGERDFGKEAISTLVKAMEDYRDNLVVILAGYSQEIDRFLKSNPGLRSRFPIHIDFCDYNAEELFQIALQIYQEREYELTSRCRWKLKQQLNEFVKNRHSHSGNARYVRNLAEKSIRLQALRIVDKDAPVRRDLVTIEEADLPDPRSIQA | not soluble
4 | MAYDIFLKIDGIDGESMDDKHKNEIEVLSWRWNIHQESTMHAGSGLGSGKVSVTNLDFDHYIDRASPNLFKYCASGKHIPQAILVMRKAGGNPLEYLKYTFTDLIVAVVSPSGSHDGEIASRETVELSFSTVKQEYVVQNQQGGSGGTITAGYDFKANKEI | not soluble
5 | MEMNRRRSRGFMIAKLMPFCKAVKSPTPSQDLYNNVHYTSSTTTSYARQPDFNNYVTATTPLPPKVSFLLQPSLAPEGKDMEKKLNMMAEKLIGRGINGVDDCVDARAASYISSVRERFKADQYCEKLTTVISLDDEN | soluble
6 | MAHHHHHHMSIFGVSSYFLWTQKGQTVLPLVRGSGFVMSFQQLNTFYSYHVMSAAHVTCPVKHRKLYGDTIGLKAIGERHISTRLLIPDEATHRVQSSFELEFRQQYMPNTDVASLRLCKEEQFKKAMLPPQDSGTGTASPLQVILPDLDRIEEGDELILCGVHTEEERANPNDDGLVLNPMRLIATCKAALLSLDYGTVLLASIDGPAEEARESGSGSAASASRPVTVPPLPLSMCGGPVLRRSSGRCVGVIAARVMANAPPRDPQSTSLYQDPYLDISEHIALHAHWPLDVAFVPIGEFYDPLRRCEM | not soluble
7 | MKPPFEQALGIIRQLKRHGYEAYFVGGAVRDLLIGRPIGDVDIATSALPEEVMRLFPKTIDVGSKHGTVVVVHEGTAYEVTTFRTDGDYEDHRRPESVTFVRSLEEDLKRRDFTMNAIAMDERGTIIDPFGGQEAIERRLICTVGAADERFREDALRMMRAVRFVSQLGFALAEDTKSAIVQNAPLMAHISVERMTMEMEKLLAGPFVAEALPLLADTGLFAYLPGLAAKEQLLRSAAAFRWPWLTKREERWALLCRALDVKDIRPFLRAWKLPNKVIDEAGAILAALDDVPRPEAWTNEQLFSAGLERALSVEAVRAALCGAPSEPHHEELRRRFAALPIKTKGELAVNGKDVIRWAGKPAGPWVKETLDAIWRAVVSSEVENEKERIYAWLMERNRTHEKNC | not soluble
8 | MNSRIETFHQMEWHFFSLISMELLSLEGLKACNSGMPIPALNPVFYSGKSTLLVAEIYQCKRFYESHSVPWALMVPDYLSDTKTDNVLAQSGFLSIDQGVAMYLSIQDLGMPGFKSDLLIKRMDNEMETWILPTIPAFESTAEIAKIYRVRHQEAIEKSSDIYHFSGFIQEQIVCSLTLTVMGDCARIDDVATFPKYQKNGYATQLILSELQILKDTNISWCFLEASADGLNIYKKIGFRELFKNLYYEEQYHYEQN | not soluble
9 | MSLADRLTIGEFSRITHLSIRMLRRYHEQDLLVPAEVDPDTGYRYYSPAQIRPALTVRRFRDLDLPLADLRRFLAAESADGPDDGTAQQVVAAHLRRLEDRLGRTQRAVEVLRELLDPEAEREGHHHHHH | not soluble
10 | MSLTITDWASTVNLNYDMSNKPVIAHVWKEQNANWLYGGWVCRSDRDENEGACDETKLPPGMLYGVTKIRLRFREQISHAETTLILDGQSGGFCLSTKISGGSVCKYLMQTCLSTFLQKSLRRYQKLAYGRLRWPWMEGHHHHHH | not soluble
11 | MAHHHHHHMETIQELILSEENKTNIAVLNLGTNDRRNAVLILETALHLVEKYLGKIINTSYLYETVPEYIVLDKKESCEKINKDCRIYDVNYINELMQNLEESKYEENKELIDKCEEYETFLKNGKVDNSILKEVNVENYLLECNNIIVKNDEIMKNNLSKYKDKYYTSYFYNLTVVVKTFVNDPLSMLVVIKYIEELMKRENVKEKEKFENRIIDIDILFFNDFTIFMKNIKLEKNMIYKILSKYIHLERDIKNGNDNMSKVNMDKDINLNNNNNIKKKNNNDIDCDCVDQKMNNHVNNKNYINSFRDPQEIINNMVDNIEFLSIPHVYTTHRYSILLCLNDMIPEYKHNVLNNTIRCLYNKYVSRMKEQYNINIKENNKRIYVLKDRISYLKEKTNIVGILNVNYDSFSDGGIFVEPKRAVQRMFEMINEGASVIDIGGESSGPFVIPNPKISERDLVVPVLQLFQKEWNDIKNKIVKCDAKPIISIDTINYNVFKECVDNDLVDILNDISACTNNPEIIKLLKKKNKFYSVVLMHKRGNPHTMDKLTNYDNLVYDIKNYLEQRLNFLVLNGIPRYRILFDIGLGFAKKHDQSIKLLQNIHVYDEYPLFIGYSRKRFIAHCMNDQNVVINTQQKLHDEQQNENKNIVDKSHNWMFQMNYMRKDKDQLLYQKNICGGLAIASYSYYKKVDLIRVHDVLETKSVLDVLTKIDQV | not soluble
12 | KNFDGDLNDYRQWRLAQENAAVAPAASAQSQSRKDTKRIEAQIRQEKARRGKPIQQKIDRAEKEMAQLSEIQTACEAFLAQEEAYFEENKEKLQDTLSELAKVKTQLAQIEEVWLACQEELEQIETEIEKQFAER | not soluble
13 | MGSDKIHHHHHHMIRANRHKRVIAVCGKGGVGKTAFTAMLTRSLLESQKAGDLLVIDADPAMGLPNTLGIQVEKTIGHVRDLIINTARAGIGEDRVDLSSRLDYLVLETLYESDDYAFLAMGRTDSQGCFCSVNDLLKKSIRILSERFDTIVIDGEAGLEQMNRQVMNMVDLLIILSDTSTRGLQTVEHITKMVTEDHVIDCTQLGVVFNRVINNELLLTQAAERIGIEVFGMVPQDQSIVHYDLIGQPLTELPADSLALSAIRDFVANHIVQLDCR | not soluble
14 | MPIVNVKWQKEKYVVEVDTSAPPMVFKAQLFALTQVVPERQKVVIMGRTLGDDDWEGITIKENMTIMMMGSVGEIPKPPTVLEKKQANRDKQAEEISALYPCGLANLGNTCYFNSCVQMLKEVNELVLKPAEEMRIREHNDRLCHNLATLFNSLRDKDRALRSKGEPIKPFAAILTLSDSFPQFEKFKQQDANECLVSIMSNVTRIYGLSGWNIESLFRIQTETTMKCLESDEVSEKKVERNNQLTCYVNQDVRFLQTGIKAGFEEEMTRNSEELNRDAKWQKNTQISRLPKYLTVNINRFFYKESTKTNAKILKSVQFPMQLDTYDLCSQELKDKLVARRADIKLEEDAKLERELRKKVLDKEQGDKIFDDGVALPTAFEDDAGSNNSGFYDLKGIITHKGRSSQDGHYVAWMRSSEDGKWRLFDDEHVTVVDEEAILKTSGGGDWHSAYVLLYEARVIKQFPELPPAPVPTEVAADTAEPMEVSEKQ | not soluble
15 | MAHHHHHHMRPLASFRGNTQTMLYTPVQDKYSILMEDDKLRVGASSMQGWRSTMEDAHTIHLSLPGLPSHMASEDGAIAAVFDGHCGSKTSQTSAIRILEWITSMEAFGEGNMEKAIRDGFIAGDLAMQRSSPNEMSGCTGNCVLIVENHLYCGNVGDSRAVLCRDGTAIPLSEDHKPNLPRERERVLRAGGYIHNGRVNGVLSLSRALGDFAFKDSDLPPEAQAVTAIPDVVHLELTPQDEFVIIACDGVWDMVTNEKAVEIVRSEVADHSDLSLACERLMDACLSKVSTGAGTDNMTVIILQFKSFFLKKVESRFGAISCNAAE | not soluble
16 | MAHHHHHHSLRLTPLPQPKRIHYMVKVGDTLSGIFAQLGVPYSILQKILSVDLDHLQLDMIQPGEELELMMDDMGQLSRLIYHMSIVEKAIYTRENDGSFSYDFQEISGEWREILFSGEINGSFSVSARRVGLTSSQVANITQVMKDKIDFSRSLRAGDRFDILVKQQYLGEHNTGNSEIKAISFKLAKGDVSAFLAEDGRFYDRAGNSLERAFNRYPVDKAYRQITSGFNPKRKHPVTGRVVPHNGTDFATPIGAPVYSTGDGKVIVVRKHPYAGNYLVIEHNSVYKTRYLHLDKILVKKGQLVKRGQKIALAGATGRLTGPHLHFEVLVRNRPVDAMKADLPIAKSLSSNQKTSFLARVSEFDHLVQANQQEVALDEG | soluble
17 | MGSDKIHHHHHHMRGPLRGKVSFPWGLRPLPMLVYHEFGRSMTRPVIGIIGNHHLINDQYATHAGGIMNSEAVAEVSGGLPLIVPSNPAFVDLDDLMATCAGFVFTGGRPNVHPEEYGEDYTDAHGTMDRDRDALTLPLIRACVERGQPILGLCRGFQEVNVAMGGSLYPEIRDLPGRMNHRMPPDGTIEEKFELRHTVTFTEGGPFHRLMGAQQVRTNTLHGQGIKQAGARVIIDGHAEDGTPEAIYIADAPGFTLSVQWHPEYRAAEDPVSRPLFAAFGEAARAWSIGKRPVKAGEVA | not soluble
18 | MEKIGETMAKLGQNTRVNSDQLIQTILADPEVASFISQHHLSQEQINLSLSKFNQFLVERQKYQLKDPSYIAKGYQPILAMNEGYADVSYLETKELVEAQKQAAISERIQLVSLPKSYRHIHLSDIDVNNASRMEAFSAILDFVEQYPSAEQKGLYLYGDMGIGKSYLLAAMAHELSEKKGVSTTLLHFPSFAIDVKNAISNGSVKEEIDAVKNVPVLILDDIGAEQATSWVRDEVLQVILQYRMLEELPTFFTSNYSFADLERKWATIKGSDETWQAKRVMERVRYLAREFHLEGANRRLEHHHHHH | soluble
19 | MSLNILISGIHGFVGSNFIRALKDKHTLYGLDIVSPAKEGVVTTFSWQDFEPTSFPFQTLPQFDAIIHLAGKAHDTKKQSAAQSYFDINTGLTQKIFDFFLESSAKKFIFFSSVKAAADSVVGDVLTEDVIPTPVGPYGESKIKAEEYIKNHFMFPTSSISEDRSLRLEKEKGRIPKNKQVYILRPCMIHGPGNKGNLNLLYNVVKKGIPWPLGDFDNRRSFTSIDNLCYVIEGLLNQDVPTGIYHMGDDEALSTNELIGIMCEAMGKKPHIWKMNKRVMEGCAGLGTLMHLPLNTERLRKLTENYVVSNAKIKAALGIDKLPVTAKEGLMKTIRSFEETKEGHHHHHH | soluble
